According to paper PMC10397247:
Each block holds one binder with its values, some of them ahead of it.

How the values were obtained:
4H_GCN4 = test: two-hybrid library CCmax; details: mean of both orientations;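 note: natural log of median RNA to DNA barcode read ratio; higher means stronger binding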
GCN2_T = test: two-hybrid library CCmax; details: mean of both orientations;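 note: natural log of median RNA to DNA barcode read ratio; higher means stronger binding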
4H3438-AA = target: T1, 4H3438-AA; test: two-hybrid library CCmax;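 note: natural log of median RNA to DNA barcode read ratio; higher means stronger binding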
T1 chain: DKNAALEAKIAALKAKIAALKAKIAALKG

4H_BCR = target: T2, 4H_BCR; test: two-hybrid library CCmax; details: mean of both orientations;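 note: natural log of median RNA to DNA barcode read ratio; higher means stronger binding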
T2 chain: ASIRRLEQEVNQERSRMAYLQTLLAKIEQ

4H_APH = target: T3, 4H_APH; test: two-hybrid library CCmax; details: mean of both orientations;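 note: natural log of median RNA to DNA barcode read ratio; higher means stronger binding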
T3 chain: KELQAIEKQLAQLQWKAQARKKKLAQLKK

4H452-AA = target: T4, 4H452-AA; test: two-hybrid library CCmax; details: mean of both orientations;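 note: natural log of median RNA to DNA barcode read ratio; higher means stronger binding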
T4 chain: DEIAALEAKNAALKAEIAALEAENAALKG

4H347-AA = target: T5, 4H347-AA; test: two-hybrid library CCmax; details: mean of both orientations
T5 chain: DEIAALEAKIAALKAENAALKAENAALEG

4H56-AA = target: T6, 4H56-AA; test: two-hybrid library CCmax; details: mean of both orientations
T6 chain: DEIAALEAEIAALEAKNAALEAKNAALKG

4H406-AA = target: T7, 4H406-AA; test: two-hybrid library CCmax; details: mean of both orientations
T7 chain: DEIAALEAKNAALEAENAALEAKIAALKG

4H918-bA = target: T8, 4H918-bA; test: two-hybrid library CCNG1
T8 chain: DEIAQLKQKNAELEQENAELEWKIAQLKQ

4H908-bA = target: T9, 4H908-bA; test: two-hybrid library CCNG1
T9 chain: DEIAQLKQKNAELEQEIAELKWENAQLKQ

4H883-bA = target: T10, 4H883-bA; test: two-hybrid library CCNG1
T10 chain: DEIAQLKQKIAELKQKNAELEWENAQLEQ

4H797-bA = target: T11, 4H797-bA; test: two-hybrid library CCNG1
T11 chain: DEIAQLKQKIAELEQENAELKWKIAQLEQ

4H967-bA = target: T12, 4H967-bA; test: two-hybrid library CCNG1
T12 chain: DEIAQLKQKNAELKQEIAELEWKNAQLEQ

4H855-bA = target: T13, 4H855-bA; test: two-hybrid library CCNG1
T13 chain: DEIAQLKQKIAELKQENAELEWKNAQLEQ

4H968-bA = target: T14, 4H968-bA; test: two-hybrid library CCNG1
T14 chain: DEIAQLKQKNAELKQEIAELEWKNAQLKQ

4H953-bA = target: T15, 4H953-bA; test: two-hybrid library CCNG1
T15 chain: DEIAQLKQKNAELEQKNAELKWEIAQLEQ

4H391-AA = target: T16, 4H391-AA; test: two-hybrid library CCmax; details: mean of both orientations
T16 chain: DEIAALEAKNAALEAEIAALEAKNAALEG

4H3920-AA = target: T17, 4H3920-AA; test: two-hybrid library CCmax; details: mean of both orientations
T17 chain: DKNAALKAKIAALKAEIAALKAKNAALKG

4H428-AA = target: T18, 4H428-AA; test: two-hybrid library CCmax; details: mean of both orientations
T18 chain: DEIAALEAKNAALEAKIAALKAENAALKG

4H3666-AA = target: T19, 4H3666-AA; test: two-hybrid library CCmax; details: mean of both orientations
T19 chain: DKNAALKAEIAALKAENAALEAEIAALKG

4H3591-AA = target: T20, 4H3591-AA; test: two-hybrid library CCmax; details: mean of both orientations
T20 chain: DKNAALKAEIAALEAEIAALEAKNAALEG

4H478-AA = target: T21, 4H478-AA; test: two-hybrid library CCmax; details: mean of both orientations
T21 chain: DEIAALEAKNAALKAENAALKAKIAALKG

4H497-AA = target: T22, 4H497-AA; test: two-hybrid library CCmax; details: mean of both orientations
T22 chain: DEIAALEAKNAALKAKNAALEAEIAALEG

4H3939-AA = target: T23, 4H3939-AA; test: two-hybrid library CCmax; details: mean of both orientations
T23 chain: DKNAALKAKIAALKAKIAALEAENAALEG

4H3709-AA = target: T24, 4H3709-AA; test: two-hybrid library CCmax; details: mean of both orientations
T24 chain: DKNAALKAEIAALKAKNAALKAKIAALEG

4H971-AA = target: T25, 4H971-AA; test: two-hybrid library CCmax; details: mean of both orientations
T25 chain: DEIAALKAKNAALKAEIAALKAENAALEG

4H675-AA = target: T26, 4H675-AA; test: two-hybrid library CCmax; details: mean of both orientations
T26 chain: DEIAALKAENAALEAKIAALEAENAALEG

4H656-AA = target: T27, 4H656-AA; test: two-hybrid library CCmax; details: mean of both orientations
T27 chain: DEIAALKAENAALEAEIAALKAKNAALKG

4H3446-AA = target: T28, 4H3446-AA; test: two-hybrid library CCmax
T28 chain: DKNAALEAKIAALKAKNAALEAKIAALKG

4H3628-AA = target: T29, 4H3628-AA; test: two-hybrid library CCmax; details: mean of both orientations
T29 chain: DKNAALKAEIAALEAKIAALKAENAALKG

Chain of 4H_GCN4 (chain, as listed by the source): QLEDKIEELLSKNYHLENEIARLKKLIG

interaction score (4H_GCN4): -1.68 | interaction score (GCN2_T): -1 | interaction score (4H3438-AA): 0.922 | interaction score (4H_BCR): -1.47 | interaction score (4H_APH): -1.5 | interaction score (4H452-AA): -0.716 | interaction score (4H347-AA): -0.916 | interaction score (4H56-AA): 0.462 | interaction score (4H406-AA): -1.51
Binder: DKNAALEAKIAALKAKIAALKAKIAALKG [4H3438-AA]

interaction score (4H918-bA): 0.787 | interaction score (4H908-bA): -0.499 | interaction score (4H883-bA): -0.129 | interaction score (4H797-bA): 0.406 | interaction score (4H967-bA): -0.372 | interaction score (4H855-bA): 0.572 | interaction score (4H968-bA): -1.67 | interaction score (4H953-bA): -0.848
Binder: DEIAQLKQKIAELEQENAELKWKIAQLEQ [4H797-bA]

interaction score (4H391-AA): 0.726 | interaction score (4H3920-AA): -1.52 | interaction score (4H428-AA): -0.892 | interaction score (4H3666-AA): 0.18 | interaction score (4H3591-AA): -0.816 | interaction score (4H478-AA): -1.66 | interaction score (4H497-AA): -1.57 | interaction score (4H3939-AA): -1.83 | interaction score (4H3709-AA): -0.0647 | interaction score (4H971-AA): -1.14 | interaction score (4H675-AA): -0.821 | interaction score (4H656-AA): -0.701 | interaction score (4H3446-AA): -0.619 | interaction score (4H3628-AA): -1.96
Binder: DKNAALEAKIAALKAKNAALEAKIAALKG [4H3446-AA]
